Test results as given in patent US20190241659A1.

Experiments:
[1] = biological target: human PD-L1 on the cell surface (PD-L1 transfected HEK293, ES2, CHO PD-L1, engineered CHO cells) (human) (UniProt Q9NZQ7); assay: flow cytometry on engineered CHO cells; four-parameter sigmoidal fit, ECf
[2] = biological target: human PD-L1 on the cell surface (PD-L1 transfected HEK293, ES2, CHO PD-L1, engineered CHO cells) (human) (UniProt Q9NZQ7); assay: flow cytometry on engineered CHO cells, AF647 anti-human IgG; apparent KD, one site specific binding fit
[3] = biological target: human OX40 and human PD-L1 expressed together on engineered CHO cells (human) (UniProt P43489); assay: as above
[4] = biological target: human PD-L1 on the cell surface (PD-L1 transfected HEK293, ES2, CHO PD-L1, engineered CHO cells) (human) (UniProt Q9NZQ7); assay: flow cytometry on engineered CHO cells; four-parameter sigmoidal fit, 50% occupancy

Chain of human PD-L1 on the cell surface (PD-L1 transfected HEK293, ES2, CHO PD-L1, engineered CHO cells) (human) (Q9NZQ7 19-290, change not shown): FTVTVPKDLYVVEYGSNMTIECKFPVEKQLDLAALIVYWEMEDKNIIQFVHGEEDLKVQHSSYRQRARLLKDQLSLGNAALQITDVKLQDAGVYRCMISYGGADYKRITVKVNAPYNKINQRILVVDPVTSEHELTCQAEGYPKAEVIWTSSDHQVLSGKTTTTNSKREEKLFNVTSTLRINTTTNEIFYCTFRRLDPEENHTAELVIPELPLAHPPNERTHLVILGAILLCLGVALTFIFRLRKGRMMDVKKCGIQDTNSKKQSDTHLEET

With “MEDI5615 (PD-L1/OX40L BFP2 bispecific molecule, IgG4P)” the concentration for 20% occupancy (EC20) [1] was 0.022 nM, the concentration for 90% occupancy (EC90) [1] was 0.79 nM and the Kd [2] was 0.088 nM. The Kd [3] was 0.27 nM and the EC50 [4] was 0.088 nM.
